Reference: patent US20220184184A1, “GLUCOSE SENSITIVE INSULIN DERIVATIVES” (Novo Nordisk A/S, priority 2019, published 2022)

B1: Compound of Example 352 (ligand)
chain 1: GIVEQCCTSICSLEQLENYCNK
chain 2: FVNQHLCGSHLVEALYLVCGERGFHYPK
modifications: diboron group of building block of Example 40 on amino group(s); site(s) shown only in the drawing
B2: Compound of Example 349 (ligand)
chain 1: GIVEQCCTSICSLEQLENYCNK
chain 2: FVNQHLCGSHLVEALYLVCGERGFHYPK
modifications: diboron group of building block of Example 38 on amino group(s); site(s) shown only in the drawing
B3: Compound of Example 348 (ligand)
chain 1: GIVEQCCTSICSLEQLENYCNK
chain 2: FVNQHLCGSHLVEALYLVCGERGFHYPK
modifications: diboron group of building block of Example 39 on amino group(s); site(s) shown only in the drawing
B4: Compound of Example 350 (ligand)
chain 1: GIVEQCCTSICSLEQLENYCNK
chain 2: FVNQHLCGSHLVEALYLVCGERGFHYPK
modifications: diboron group of building block of Example 37 on amino group(s); site(s) shown only in the drawing
B5: Compound of Example 152 (ligand)
chain 1: GIVEQCCTSICSLEQLENYCNK
chain 2: FVNQHLCGSHLVEALYLVCGERGFHYPGK
modifications: not fully specified; diboron group from building block of example 15; sites only in drawing
B6: Compound of Example 154 (ligand)
chain 1: GIVEQCCTSICSLEQLENYCNK
chain 2: FVNQHLCGSHLVEALYLVCGERGFHYPGK
modifications: not fully specified; diboron group from building block of example 19; sites only in drawing
B7: Compound of Example 158 (ligand)
chain 1: GIVEQCCTSICSLEQLENYCNK
chain 2: FVNQHLCGSHLVEALYLVCGERGFHYPGK
modifications: not fully specified; diboron group from building block of example 16; sites only in drawing
B8: Compound of Example 166 (ligand)
chain 1: GIVEQCCTSICSLEQLENYCNK
chain 2: FVNQHLCGSHLVEALYLVCGERGFHYPK
modifications: not fully specified; diboron group from building block of example 20; sites only in drawing
B9: Compound of Example 155 (ligand)
chain 1: GIVEQCCTSICSLEQLENYCNK
chain 2: FVNQHLCGSHLVEALYLVCGERGFHYPK
modifications: not fully specified; diboron group from building block of example 19; sites only in drawing
B10: Compound of Example 150 (ligand)
chain 1: GIVEQCCTSICSLEQLENYCNK
chain 2: FVNQHLCGSHLVEALYLVCGERGFHYPK
modifications: not fully specified; diboron group from building block of example 18; sites only in drawing
B11: Compound of Example 139 (ligand)
chain 1: GIVEQCCTSICSLEQLENYCNK
chain 2: FVNQHLCGSHLVEALYLVCGERGFHYPK
modifications: diboron group from building block of example 9; sites only in drawing
B12: Compound of Example 146 (ligand)
chain 1: GIVEQCCTSICSLEQLENYCNK
chain 2: FVNQHLCGSHLVEALYLVCGERGFHYPK
modifications: not fully specified; diboron group from building block of example 16; sites only in drawing
B13: Compound of Example 149 (ligand)
chain 1: GIVEQCCTSICSLEQLENYCNK
chain 2: FVNQHLCGSHLVEALYLVCGERGFHYPK
modifications: not fully specified; diboron group from building block of example 15; sites only in drawing
B14: Compound of Example 141 (ligand)
chain 1: GIVEQCCTSICSLEQLENYCNK
chain 2: FVNQHLCGSHLVEALYLVCGERGFHYPK
modifications: diboron group from building block of example 2; sites only in drawing
B15: compound of Example 272: A14E A22K B25H desB27 desB30 human insulin conjugated with building block of example 29 (ligand)
chain 1: GIVEQCCTSICSLEQLENYCNK
chain 2: FVNQHLCGSHLVEALYLVCGERGFHYPK
modifications: not fully specified; diboron group(s) of example 29, sites only in drawing
notes: number and sites of diboron groups only in drawing
B16: compound of Example 271: A14E A22K B25H desB27 desB30 human insulin conjugated with building block of example 22 (ligand)
chain 1: GIVEQCCTSICSLEQLENYCNK
chain 2: FVNQHLCGSHLVEALYLVCGERGFHYPK
modifications: not fully specified; diboron group(s) of example 22, sites only in drawing
notes: as for B15

Target: T1, human Insulin Receptor A (hIR-A) (human, UniProt P06213-2 28-1370)
T1 construct: Solubilized semi-purified receptor captured on SPA beads through antibody 83-7
Assay: SPA, displacement of 125I-insulin from solubilised hIR-A, 1.5% HSA; increase in relative affinity from 0 to 20 mM glucose
Conditions: not given
Protocol: (§1) BHK cells over-expressing human Insulin Receptor A (hIR-A) were lysed in 50 mM Hepes pH 8.0, 150 mM NaCl, 1% Triton X-100, 2 mM EDTA and 10% glycerol. The cleared cell lysate was batch absorbed with wheat germ agglutinin (WGA)-agarose (Lectin from Triticum vulgaris-Agarose, L1394, Sigma-Aldrich Steinheim, Germany) for 90 minutes. The receptors were washed with 20 volumes 50 mM Hepes pH 8.0, 150 mM NaCl and 0.1% Triton X-100, where after the receptors were eluted with 50 mM Hepes pH 8.0, 150 mM NaCl, 0.1% Triton X-100, 0.5 M n-Acetyl Glucosamine and 10% glycerol. All buffers contained Complete (Roche Diagnostic GmbH, Mannheim, Germany) as described in Andersen et al. 2017 PLos One 12.
(§2) In order to test the glucose sensitivity, the binding experiments were set up in absence or presence of 20 mM glucose. The plates were rocked gently for 22.5 hours at 22° C., centrifuged for 5 minutes at 1000 rpm and counted in TopCounter (Perkin Elmer). Data points were fitted to a four-parameter logistic model, whereby the relative affinity of the analogue compared to human insulin (within the same plate) was determined.

**Q.** With B1 as the molecule, how does the “HIR glucose factor, 20 mM glucose 1.5% HSA” value read?
**A.** Its value is 5.2 fold.

**Q.** Which “HIR glucose factor, 20 mM glucose 1.5% HSA” value does the source give for B2 here?
**A.** Its value is 4.7 fold.

**Q.** Which “HIR glucose factor, 20 mM glucose 1.5% HSA” value does the source give for B3 here?
**A.** Its value is 7.3 fold.

**Q.** With B4 as the molecule, how does the “HIR glucose factor, 20 mM glucose 1.5% HSA” value read?
**A.** The value was 18.4 fold.

Test system: not listed separately
Assay: Alizarin red (ARS) colorimetric displacement assay, binding of boron compounds to glucose
Conditions: statement in words
Protocol: The alizarin-red binding assay is a colorimetric assay used to determine the inhibition affinity of boronate/boroxole compounds to glucose. The assay is based on a colour shift of alizarin-red upon binding to boronate, which shift can be followed by change in absorbance in the 330-340 nm region. […] After 5 minutes of centrifugation at 4000 rpm, the plate is placed in a multi-well spectrometer (SpectraMax, Molecular Devices) for absorption detection. […] Upon complete dissolution of the compound, 200 μM of Alizarin red (ARS) is added to the solution. The ARS-boronate solution is then aliquoted into a 96 multiwell plate (black, flat and clear bottom) 1:1 with appropriate carbohydrate. […] The plate with ARS-boronate mixed with carbohydrate is incubated 20 minutes at room temperature. After 5 minutes of centrifugation at 4000 rpm the plate is placed in a multiwell spectrometer (SpectraMax, Molecular Devices) for absorption detection.

**Q.** For `O=C(O)c1cc2c(c(C(F)(F)F)c1)COB2O` [Example 42, 1-Hydroxy-4-(trifluoromethyl)-1,3-dihydrobenzo[c][1,2]oxaborole-6-carboxylic acid], which “affinity to glucose compared with the diboron compounds” value is on record?
**A.** The value was “weaker affinity to glucose”.

**Q.** With `O=C(O)c1cc(F)c2c(c1)B(O)OC2` [Example 43, 4-fluoro-1-hydroxy-1,3-dihydrobenzo[c][1,2]oxaborole-6-carboxylic acid] as the molecule, how does the “affinity to glucose compared with the diboron compounds” value read?
**A.** The value was “weaker affinity to glucose”.

Target: T2, human Insulin Receptor A (hIR-A) (human, UniProt P06213-2 28-1370)
T2 construct: Solubilised semi-purified receptor captured on SPA beads by antibody 83-7
Assay: SPA, relative hIR-A affinity at 20 mM vs 0 mM glucose, 1.5% HSA
Conditions: not given
Protocol: as §1, §2

**Q.** Which “HIR glucose factor, 20 mM glucose 1.5% HSA” value does the source give for B5 here?
**A.** Its value is 2.9 fold.

**Q.** Which “HIR glucose factor, 20 mM glucose 1.5% HSA” value does the source give for B6 here?
**A.** Its value is 3.7 fold.

**Q.** For B7, which “HIR glucose factor, 20 mM glucose 1.5% HSA” value is on record?
**A.** Its value is 9.9 fold.

**Q.** With B8 as the molecule, how does the “HIR glucose factor, 20 mM glucose 1.5% HSA” value read?
**A.** The value was 5.9 fold.

**Q.** For B9, which “HIR glucose factor, 20 mM glucose 1.5% HSA” value is on record?
**A.** The value was 3 fold.

**Q.** Which “HIR glucose factor, 20 mM glucose 1.5% HSA” value does the source give for B10 here?
**A.** Its value is 1.3 fold.

**Q.** For B11, which “HIR glucose factor, 20 mM glucose 1.5% HSA” value is on record?
**A.** Its value is 3.2 fold.

**Q.** For B12, which “HIR glucose factor, 20 mM glucose 1.5% HSA” value is on record?
**A.** The value was 4.5 fold.

**Q.** With B13 as the molecule, how does the “HIR glucose factor, 20 mM glucose 1.5% HSA” value read?
**A.** The value was 2.8 fold.

**Q.** For B14, which “HIR glucose factor, 20 mM glucose 1.5% HSA” value is on record?
**A.** Its value is 2.3 fold.

Target: T1, human Insulin Receptor A (hIR-A)
Assay: SPA, displacement of 125I-insulin from solubilised hIR-A, 1.5% HSA, no glucose; affinity relative to human insulin
Conditions: not given
Protocol: as §1, §2

**Q.** For B2, which “HIR affinity relative HI (%), 1.5% HSA” value is on record?
**A.** The value was 1%.

**Q.** With B3 as the molecule, how does the “HIR affinity relative HI (%), 1.5% HSA” value read?
**A.** The value was 0.2%.

**Q.** Which “HIR affinity relative HI (%), 1.5% HSA” value does the source give for B4 here?
**A.** The value was 0.1%.

Target: T3, human Insulin Receptor A (hIR-A) (human, UniProt P06213-2 28-1370)
T3 construct: Solubilised, semi-purified receptor
Assay: SPA, competition with 125I-insulin on solubilised hIR-A, relative to human insulin
Conditions: not given
Protocol: as §1, §2

**Q.** With B15 as the molecule, how does the “HIR affinity relative HI (%), 1.5% HSA” value read?
**A.** The value was 0.2%.

Target: T2, human Insulin Receptor A (hIR-A)
Assay: SPA competition vs 125I-insulin, hIR-A, 1.5% HSA, no glucose
Conditions: not given
Protocol: as §1, §2

**Q.** With B5 as the molecule, how does the “HIR affinity relative HI (%), 1.5% HSA” value read?
**A.** The value was 4.9%.

**Q.** For B6, which “HIR affinity relative HI (%), 1.5% HSA” value is on record?
**A.** Its value is 6.1%.

**Q.** With B7 as the molecule, how does the “HIR affinity relative HI (%), 1.5% HSA” value read?
**A.** The value was 2%.

**Q.** Which “HIR affinity relative HI (%), 1.5% HSA” value does the source give for B8 here?
**A.** The value was 2.2%.

**Q.** With B9 as the molecule, how does the “HIR affinity relative HI (%), 1.5% HSA” value read?
**A.** Its value is 5.3%.

**Q.** With B10 as the molecule, how does the “HIR affinity relative HI (%), 1.5% HSA” value read?
**A.** The value was 13.3%.

**Q.** With B11 as the molecule, how does the “HIR affinity relative HI (%), 1.5% HSA” value read?
**A.** The value was 4%.

**Q.** For B12, which “HIR affinity relative HI (%), 1.5% HSA” value is on record?
**A.** Its value is 3.5%.

**Q.** For B13, which “HIR affinity relative HI (%), 1.5% HSA” value is on record?
**A.** The value was 6.7%.

**Q.** With B14 as the molecule, how does the “HIR affinity relative HI (%), 1.5% HSA” value read?
**A.** The value was 8.6%.

Target: T3, human Insulin Receptor A (hIR-A)
Assay: SPA, relative hIR-A affinity at 20 mM over 0 mM glucose
Conditions: not given
Protocol: as §1, §2

**Q.** Which “HIR glucose factor, 20 mM glucose 1.5% HSA” value does the source give for B15 here?
**A.** The value was 12.1 fold.

**Q.** Which “HIR glucose factor, 20 mM glucose 1.5% HSA” value does the source give for B16 here?
**A.** Its value is 7.1 fold.
